* marks the point of attachment. Biotin = O=C1N[C@H]2[C@H](CS[C@H]2CCCCC(=O)*)N1
molecular target: T1, WD40 repeat protein 5 (WDR5), human (human, UniProt P61964 1-334); assay: SPR

Binder	koff [s⁻¹]	kon [M⁻¹ s⁻¹]
{sulforhodamine B}-GGSGGSGGSEHVTGCARSEGFYT-NH2 [Sulforhodamine B-(GGS)3SETd1BWin-NH2]	0.024	340000
{sulforhodamine B}-GGSGGSGGSINPTGCARSEPKIL-NH2 [Sulforhodamine B-(GGS)3MLL2Win-NH2]	0.012	370000
{sulforhodamine B}-GGSGGSGGSEHQTGSARSEGYYP-NH2 [Sulforhodamine B-(GGS)3SETd1AWin-NH2]	0.11	310000
{sulforhodamine B}-GGSGGSGGSVNPTGCARSEPKMS-NH2 [Sulforhodamine B-(GGS)3MLL3Win-NH2]	0.009	490000
{sulforhodamine B}-GGSGGSGGSLNPHGAARAEVYLS-NH2 [Sulforhodamine B-(GGS)3MLL4Win-NH2]	0.041	210000

molecular target: T1, WD40 repeat protein 5 (WDR5), human; assay: BLI

Binder	Kd [nM]	koff [s⁻¹]	kon [M⁻¹ s⁻¹]
Biotin-GGSGGSGGSINPTGCARSEPKIL-NH2 (SMILES CC[C@H](C)[C@H](NC(=O)[C@H](CCCCN)NC(=O)[C@@H]1CCCN1C(=O)[C@H](CCC(=O)O)NC(=O)[C@H](CO)NC(=O)[C@H](CCCNC(=N)N)NC(=O)[C@H](C)NC(=O)[C@H](CS)NC(=O)CNC(=O)[C@@H](NC(=O)[C@@H]1CCCN1C(=O)[C@H](CC(N)=O)NC(=O)[C@@H](NC(=O)[C@H](CO)NC(=O)CNC(=O)CNC(=O)[C@H](CO)NC(=O)CNC(=O)CNC(=O)[C@H](CO)NC(=O)CNC(=O)CNC(=O)CCCC[C@@H]1SC[C@@H]2NC(=O)N[C@@H]21)[C@@H](C)CC)[C@@H](C)O)C(=O)N[C@@H](CC(C)C)C(N)=O) [Biotinyl-(GGS)3MLL2Win-NH2]	170	0.0077	44000
Biotin-GGSGGSGGSEHQTGSARSEGYYP-NH2 (SMILES C[C@H](NC(=O)[C@H](CO)NC(=O)CNC(=O)[C@@H](NC(=O)[C@H](CCC(N)=O)NC(=O)[C@H](Cc1c[nH]cn1)NC(=O)[C@H](CCC(=O)O)NC(=O)[C@H](CO)NC(=O)CNC(=O)CNC(=O)[C@H](CO)NC(=O)CNC(=O)CNC(=O)[C@H](CO)NC(=O)CNC(=O)CNC(=O)CCCC[C@@H]1SC[C@@H]2NC(=O)N[C@@H]21)[C@@H](C)O)C(=O)N[C@@H](CCCNC(=N)N)C(=O)N[C@@H](CO)C(=O)N[C@@H](CCC(=O)O)C(=O)NCC(=O)N[C@@H](Cc1ccc(O)cc1)C(=O)N[C@@H](Cc1ccc(O)cc1)C(=O)N1CCC[C@H]1C(N)=O) [Biotinyl-(GGS)3SETd1AWin-NH2]	620	0.051	82000
Biotin-GGSGGSGGSVNPTGCARSEPKMS-NH2 (SMILES CSCC[C@H](NC(=O)[C@H](CCCCN)NC(=O)[C@@H]1CCCN1C(=O)[C@H](CCC(=O)O)NC(=O)[C@H](CO)NC(=O)[C@H](CCCNC(=N)N)NC(=O)[C@H](C)NC(=O)[C@H](CS)NC(=O)CNC(=O)[C@@H](NC(=O)[C@@H]1CCCN1C(=O)[C@H](CC(N)=O)NC(=O)[C@@H](NC(=O)[C@H](CO)NC(=O)CNC(=O)CNC(=O)[C@H](CO)NC(=O)CNC(=O)CNC(=O)[C@H](CO)NC(=O)CNC(=O)CNC(=O)CCCC[C@@H]1SC[C@@H]2NC(=O)N[C@@H]21)C(C)C)[C@@H](C)O)C(=O)N[C@@H](CO)C(N)=O) [Biotinyl-(GGS)3MLL3Win-NH2]	100	0.0053	54000
Biotin-GGSGGSGGSEHVTGCARSEGFYT-NH2 (SMILES CC(C)[C@H](NC(=O)[C@H](Cc1c[nH]cn1)NC(=O)[C@H](CCC(=O)O)NC(=O)[C@H](CO)NC(=O)CNC(=O)CNC(=O)[C@H](CO)NC(=O)CNC(=O)CNC(=O)[C@H](CO)NC(=O)CNC(=O)CNC(=O)CCCC[C@@H]1SC[C@@H]2NC(=O)N[C@@H]21)C(=O)N[C@H](C(=O)NCC(=O)N[C@@H](CS)C(=O)N[C@@H](C)C(=O)N[C@@H](CCCNC(=N)N)C(=O)N[C@@H](CO)C(=O)N[C@@H](CCC(=O)O)C(=O)NCC(=O)N[C@@H](Cc1ccccc1)C(=O)N[C@@H](Cc1ccc(O)cc1)C(=O)N[C@H](C(N)=O)[C@@H](C)O)[C@@H](C)O) [Biotinyl-(GGS)3SETd1BWin-NH2]	250	0.017	71000
Biotin-GGSGGSGGSLNPHGAARAEVYLS-NH2 (SMILES CC(C)C[C@H](NC(=O)[C@H](Cc1ccc(O)cc1)NC(=O)[C@@H](NC(=O)[C@H](CCC(=O)O)NC(=O)[C@H](C)NC(=O)[C@H](CCCNC(=N)N)NC(=O)[C@H](C)NC(=O)[C@H](C)NC(=O)CNC(=O)[C@H](Cc1c[nH]cn1)NC(=O)[C@@H]1CCCN1C(=O)[C@H](CC(N)=O)NC(=O)[C@H](CC(C)C)NC(=O)[C@H](CO)NC(=O)CNC(=O)CNC(=O)[C@H](CO)NC(=O)CNC(=O)CNC(=O)[C@H](CO)NC(=O)CNC(=O)CNC(=O)CCCC[C@@H]1SC[C@@H]2NC(=O)N[C@@H]21)C(C)C)C(=O)N[C@@H](CO)C(N)=O) [Biotinyl-(GGS)3MLL4Win-NH2]	1700	0.039	23000
